T1: NKp30 on KHYG-1 NK cells (human, UniProt O14931 19-201)
T1 construct: whole, on cells; also called NK cell line KHYG-1; NKp30+ KHYG-1 cells
T1 sequence (looked up): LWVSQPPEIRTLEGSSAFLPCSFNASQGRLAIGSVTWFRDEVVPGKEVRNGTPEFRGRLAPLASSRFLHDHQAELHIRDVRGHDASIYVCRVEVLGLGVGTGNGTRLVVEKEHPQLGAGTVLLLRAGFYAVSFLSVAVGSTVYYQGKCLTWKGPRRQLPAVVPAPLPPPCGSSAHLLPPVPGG

T2: human NKp30 (construct not named) (human, UniProt O14931 19-135, limits assumed)
T2 construct: also called hNKp30
T2 sequence (looked up): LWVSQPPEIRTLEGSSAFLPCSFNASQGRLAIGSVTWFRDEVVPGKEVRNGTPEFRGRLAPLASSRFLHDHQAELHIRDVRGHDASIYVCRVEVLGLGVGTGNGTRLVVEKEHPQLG


What was measured:
[1] = biological target: T3, TRBC2 on TRBC2+ cell lines (HPB-ALL; HH; HDMAR2) (human, UniProt A0A5B9 1-178); test: flow cytometry on TRBC2+ HPB-ALL cells, antibody 200 nM to 0.003387 nM
T3 construct: whole, on cells; also called TRBC2+ HPB-ALL cells
Procedure: (§1) A flow cytometry-based assay was performed to check binding of anti-TRBC2x NKp30 to either TRBC2+ HPB-ALL cells, TRBC1+ Jurkat cells or NKp30+ KHYG-1 cells.
(§2) Each antibody was diluted to 200 nM and then serially diluted three-fold down to 0.003387 nM. Antibodies were incubated with each cell line for 1 hour at 4C. […] Zombie UV (BioLegend 423107) viability dye was added to the cells 1:1000 and incubated for 30 minutes at room temperature. Cells were analyzed on the CytoFlex LX flow cytometer.

[2] = biological target: T4, human TRBC2 (construct not named) (human, UniProt A0A5B9 1-129, limits assumed); test: SPR, bispecific captured via anti-human Fc on CM5, hTRBC2 from 125 nM in two-fold dilutions, 1:1 fit
T4 construct: also called hTRBC2
Procedure: (§3) In this example, surface plasmon resonance assay was performed to check binding of anti-TRBC2xNKp30 bispecific antibodies (bispecifics) to either hTRBC2, hTRBC1 or hNKp30 proteins. […] The bispecific antibodies may or may not have an N297A mutation in their Fc regions. FIG. 31B represents a design for monovalent TRBC2 control. Briefly, TRBC2xNKp30 bispecifics at 2 ug/mL were immobilized on CM5 chip via anti-human Fc antibody to 70 RU. Human TRBC2 or human TRBC1 antigens were diluted to 125 nM and then serially diluted two-fold. Association was 300 seconds and dissociation were 600 seconds. This assay was run in 1 x HBS-EP+ Buffer pH 7.4 and 25 C. The data was fit using a 1:1 binding model assess binding of bispecifics to NKp30, human NKp30 at 2 ug/mL was immobilized on CM5 chip via Anti-mouse Fc antibody to 70 RU. TRBC2xNKp30 bispecifics were diluted to 50 nM and then serially diluted two-fold. Association was 300 seconds and dissociation were 600 seconds. This assay was run in 1 x HBS-EP+ Buffer pH 7.4 and 25 C. The data was fit using a 1:1 binding model.

NKp30 on KHYG-1 NK cells = biological target: T1, NKp30 on KHYG-1 NK cells; test: flow cytometry on NKp30+ KHYG-1 cells, antibody 200 nM to 0.003387 nM
Procedure: as §1, §2

[3] = biological target: T2, human NKp30 (construct not named); test: SPR, human NKp30 captured via anti-mouse Fc on CM5, bispecific from 50 nM in two-fold dilutions, 1:1 fit
Procedure: as §3

[4] = biological target: T5, human TRBC1 (construct not named) (human, UniProt P01850 1-129, limits assumed); test: method not stated
T5 construct: also called hTRBC1
T5 sequence (P01850 1-129 limits assumed): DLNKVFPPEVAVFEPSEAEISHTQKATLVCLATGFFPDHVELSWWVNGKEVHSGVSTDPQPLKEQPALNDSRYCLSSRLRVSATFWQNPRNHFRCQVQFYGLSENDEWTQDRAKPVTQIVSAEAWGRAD

T3 sequence (A0A5B9 whole entry): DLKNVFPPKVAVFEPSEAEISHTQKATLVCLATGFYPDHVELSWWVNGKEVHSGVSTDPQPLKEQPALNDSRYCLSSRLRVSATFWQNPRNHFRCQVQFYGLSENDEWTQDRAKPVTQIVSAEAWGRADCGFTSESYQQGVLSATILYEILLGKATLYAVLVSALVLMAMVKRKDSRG
T4 sequence (A0A5B9 1-129 limits assumed): as the sequence (P01850 1-129 limits assumed) above, with N3K, K4N, E9K, F36Y counted along it

EC50 [1]	Kd [2]	EC50 (NKp30 on KHYG-1 NK cells)	Kd [3]	Kd [4]	Binder
1.1 nM	31 nM	1.1 nM	0.54 nM		BKM0312 (anti-TRBC2/NKp30 bispecific antibody) (bispecific antibody) chain 1: not shown chain 2: DVVMTQSPLSLPVTLGQPASISCRSSKNLVHSNGRTYLQWYQQRPGQSPRLLIYRVSNRFPGVPDRFSGSGSGTDFTLKISRVEAEDVGVYFCSQSTREPYTFGGGTKVEIKRTVAAPSVFIFPPSDEQLKSGTASVVCLLNNFYPREAKVQWKVDNALQSGNSQESVTEQDSKDSTYSLSSTLTLSKADYEKHKVYACEVTHQGLSSPVTKSFNRGEC chain 3: EIQLLESGGGLVQPGGSLRLSCAVSGFSITTTGYHWNWVRQAPGKGLEWVGYIYSSGSTSYNPSLKSRFTISRDTSKNTFYLQMNSLRAEDTAVYYCARGDWHYFDYWGQGTMVTVSSGGGGSGGGGSGGGGSGGGGSDSVTTQSPLSLPVTLGQPASISCSGEKLSDKYVHWYQQRPGQSPRMLIYENDRRPSGVPDRFSGSNSGNDATLKISRVEAEDVGVYFCQFWDSTNSAVFGGGTKVEIKDKTHTCPPCPAPELLGGPSVFLFPPKPKDTLMISRTPEVTCVVVDVSHEDPEVKFNWYVDGVEVHNAKTKPREEQYASTYRVVSVLTVLHQDWLNGKEYKCKVSNKALPAPIEKTISKAKGQPREPQVCTLPPSREEMTKNQVSLSCAVKGFYPSDIAVEWESNGQPENNYKTTPPVLDSDGSFFLVSKLTVDKSRWQQGNVFSCSVMHEALHNHYTQKSLSLSPGK
0.33 nM	9.2 nM	0.33 nM	0.63 nM		BKM0311 (anti-TRBC2/NKp30 bispecific antibody) (bispecific antibody, human IgG1, kappa, N297A) heavy: not shown light: DVVMTQSPLSLPVTLGQPASISCRSSKNLVHSNGRTYLQWYQQRPGQSPRLLIYRVSNRFPGVPDRFSGSGSGTDFTLKISRVEAEDVGVYFCSQSTREPYTFGGGTKVEIKRTVAAPSVFIFPPSDEQLKSGTASVVCLLNNFYPREAKVQWKVDNALQSGNSQESVTEQDSKDSTYSLSSTLTLSKADYEKHKVYACEVTHQGLSSPVTKSFNRGEC scFv: EIQLLESGGGLVQPGGSLRLSCAVSGFSITTTGYHWNWVRQAPGKGLEWVGYIYSSGSTSYNPSLKSRFTISRDTSKNTFYLQMNSLRAEDTAVYYCARGDWHYFDYWGQGTMVTVSSGGGGSGGGGSGGGGSGGGGSDSVTTQSPLSLPVTLGQPASISCSGEKLSDKYVHWYQQRPGQSPRMLIYENDRRPSGVPDRFSGSNSGNDATLKISRVEAEDVGVYFCQFWDSTNSAVFGGGTKVEIKDKTHTCPPCPAPELLGGPSVFLFPPKPKDTLMISRTPEVTCVVVDVSHEDPEVKFNWYVDGVEVHNAKTKPREEQYASTYRVVSVLTVLHQDWLNGKEYKCKVSNKALPAPIEKTISKAKGQPREPQVCTLPPSREEMTKNQVSLSCAVKGFYPSDIAVEWESNGQPENNYKTTPPVLDSDGSFFLVSKLTVDKSRWQQGNVFSCSVMHEALHNHYTQKSLSLSPGK

Second part, the binder before the results:

Binder	EC50 [1]	Kd [2]	EC50 (NKp30 on KHYG-1 NK cells)	Kd [3]	Kd [4]
BKM0098 (anti-TRBC2/NKp30 bispecific antibody) (bispecific antibody, human IgG1, kappa, N297A, Anti-TRBC2 Fab-Fc and anti-NKp30 scFv-Fc; also called Anti-TRBC2-NKp30-BKM0098; Parental Bispecific) heavy: not shown light: DVVMTQSPLSLPVTPGEPASISCRSSQNLVHSNGRTYLQWYLQKPGQSPQLLIYRVSNRFPGVPDRFSGSGSGTDFTLKISRVEAEDVGVYFCSQSTHVPYTFGGGTKVEIKRTVAAPSVFIFPPSDEQLKSGTASVVCLLNNFYPREAKVQWKVDNALQSGNSQESVTEQDSKDSTYSLSSTLTLSKADYEKHKVYACEVTHQGLSSPVTKSFNRGEC scFv: EIQLLESGGGLVQPGGSLRLSCAVSGFSITTTGYHWNWVRQAPGKGLEWVGYIYSSGSTSYNPSLKSRFTISRDTSKNTFYLQMNSLRAEDTAVYYCARGDWHYFDYWGQGTMVTVSSGGGGSGGGGSGGGGSGGGGSDSVTTQSPLSLPVTLGQPASISCSGEKLSDKYVHWYQQRPGQSPRMLIYENDRRPSGVPDRFSGSNSGNDATLKISRVEAEDVGVYFCQFWDSTNSAVFGGGTKVEIKDKTHTCPPCPAPELLGGPSVFLFPPKPKDTLMISRTPEVTCVVVDVSHEDPEVKFNWYVDGVEVHNAKTKPREEQYASTYRVVSVLTVLHQDWLNGKEYKCKVSNKALPAPIEKTISKAKGQPREPQVCTLPPSREEMTKNQVSLSCAVKGFYPSDIAVEWESNGQPENNYKTTPPVLDSDGSFFLVSKLTVDKSRWQQGNVFSCSVMHEALHNHYTQKSLSLSPGK	4 nM	89 nM	4 nM	0.63 nM	
BKM0240 (anti-TRBC2/NKp30 bispecific antibody) (bispecific antibody, human IgG1, kappa, N297A, also called Parental Bispecific) heavy: not shown light: DVVMTQSPLSLPVTLGQPASISCRSSKNLVHSNGRTYLQWYQQRPGQSPRLLIYRVSNRFPGVPDRFSGSGSGTDFTLKISRVEAEDVGVYFCSQSTREPYTFGGGTKVEIKRTVAAPSVFIFPPSDEQLKSGTASVVCLLNNFYPREAKVQWKVDNALQSGNSQESVTEQDSKDSTYSLSSTLTLSKADYEKHKVYACEVTHQGLSSPVTKSFNRGEC scFv: EIQLLESGGGLVQPGGSLRLSCAVSGFSITTTGYHWNWVRQAPGKGLEWVGYIYSSGSTSYNPSLKSRFTISRDTSKNTFYLQMNSLRAEDTAVYYCARGDWHYFDYWGQGTMVTVSSGGGGSGGGGSGGGGSGGGGSDSVTTQSPLSLPVTLGQPASISCSGEKLSDKYVHWYQQRPGQSPRMLIYENDRRPSGVPDRFSGSNSGNDATLKISRVEAEDVGVYFCQFWDSTNSAVFGGGTKVEIKDKTHTCPPCPAPELLGGPSVFLFPPKPKDTLMISRTPEVTCVVVDVSHEDPEVKFNWYVDGVEVHNAKTKPREEQYASTYRVVSVLTVLHQDWLNGKEYKCKVSNKALPAPIEKTISKAKGQPREPQVCTLPPSREEMTKNQVSLSCAVKGFYPSDIAVEWESNGQPENNYKTTPPVLDSDGSFFLVSKLTVDKSRWQQGNVFSCSVMHEALHNHYTQKSLSLSPGK	1.5 nM	28 nM	1.5 nM	0.58 nM	
BIM0460 (Example 8; format not stated) (antibody, V domains shown, Humanized JOVI.1 variant) VH: QVQLVQSGAEVKKPGSSVKVSCKASGYTFTGYVMHWVRQAPGQGLEWMGFINPYNDDIQSNERFRGRVTITSDKSTTTAYMELSSLRSEDTAVYYCARGAGYNFDGAYRFFDFWGQGTLVTVSS VL: DVVMTQSPLSLPVTLGQPASISCRSSQRLVHSNGNTYLHWYQQRPGQSPRLLIYRVSNRFPGVPDRFSGSGSGTDFTLKISRVEAEDVGVYFCSQSTHVPYTFGGGTKVEIK					17 nM
BJM0578 (Example 8; format not stated) (antibody, V domains shown, Germlined variant of BIM0460) VH: QVQLVQSGAEVKKPGSSVKVSCKASGYTFTGYVMHWVRQAPGQGLEWMGFIIPIFGTANYAQKFQGRVTITSDKSTTTAYMELSSLRSEDTAVYYCARGAGYNFDGAYRFFDFWGQGTLVTVSS VL: DVVMTQSPLSLPVTLGQPASISCRSSQRLVHSNGNTYLHWYQQRPGQSPRLLIYRVSNRFPGVPDRFSGSGSGTDFTLKISRVEAEDVGVYFCSQSTHVPYTFGGGTKVEIK					110 nM

From patent publication US20230357395A1 (MARENGO THERAPEUTICS, published 2023)
